Data published in ChEMBL document CHEMBL1143427, “Interactions of ceftobiprole with beta-lactamases from molecular classes A to D” (Antimicrob Agents Chemother, 2007).

Tests used:
[1] = substrate: Nc1nc(/C(=N/O)C(=O)N[C@@H]2C(=O)N3C(C(=O)O)=C(/C=C4\CCN([C@@H]5CCNC5)C4=O)CS[C@H]23)ns1; test: (§1) Ratio of Kcat to Km of Escherichia coli TEM1 assessed as drug hydrolysis by spectrophotometry
[2] = substrate: CC(C)(O/N=C(\C(=O)N[C@@H]1C(=O)N2C(C(=O)[O-])=C(C[n+]3ccccc3)CS[C@H]12)c1csc(N)n1)C(=O)O; test: as §1
[3] = substrate: CC1(C)S[C@@H]2[C@H](NC(=O)Cc3ccccc3)C(=O)N2[C@H]1C(=O)O; test: as §1
[4] = substrate: Nc1nc(/C(=N/O)C(=O)N[C@@H]2C(=O)N3C(C(=O)O)=C(/C=C4\CCN([C@@H]5CCNC5)C4=O)CS[C@H]23)ns1; test: (§2) Activity of Escherichia coli TEM1 assessed as drug hydrolysis by spectrophotometry
[5] = substrate: CC(C)(O/N=C(\C(=O)N[C@@H]1C(=O)N2C(C(=O)[O-])=C(C[n+]3ccccc3)CS[C@H]12)c1csc(N)n1)C(=O)O; test: as §2
[6] = substrate: O=C(Cc1cccs1)N[C@@H]1C(=O)N2C(C(=O)[O-])=C(C[n+]3ccccc3)CS[C@H]12; test: as §2
[7] = substrate: CC1(C)S[C@@H]2[C@H](NC(=O)Cc3ccccc3)C(=O)N2[C@H]1C(=O)O; test: as §2

B1: Beta-lactamase TEM (Escherichia coli), P62593 (protein)
chain: MSIQHFRVALIPFFAAFCLPVFAHPETLVKVKDAEDQLGARVGYIELDLNSGKILESFRPEERFPMMSTFKVLLCGAVLSRVDAGQEQLGRRIHYSQNDLVEYSPVTEKHLTDGMTVRELCSAAITMSDNTAANLLLTTIGGPKELTAFLHNMGDHVTRLDRWEPELNEAIPNDERDTTMPAAMATTLRKLLTGELLTLASRQQLIDWMEADKVAGPLLRSALPAGWFIADKSGAGERGSRGIIAALGPDGKPSRIVVIYTTGSQATMDERNRQIAEIGASLIKHW
With B1 the kcat/Km [1] was 0.029 s⁻¹ µM⁻¹, the kcat/Km [2] was 1.2e-05 s⁻¹ µM⁻¹ and the kcat/Km [3] was 100 s⁻¹ µM⁻¹. It also gave a Km [4] of 300 µM, a kcat [4] of 8.8 s⁻¹ and a Km [5] of 200 µM. It also gave a kcat [5] of 0.0023 s⁻¹, a Km [6] of 560 µM and a kcat [6] of 980 s⁻¹. For the same protein, the Km [7] was 12 µM and the kcat [7] was 1200 s⁻¹.
